Experimental findings from article PMC3677877 (PLoS ONE, 2013) are described below.

One assay concerns the target caspase 3 (UniProt P42574).
A further assay has as its target papain (UniProt P00784).
Assay [1] concerns the target rKgp: mature recombinant Kgp catalytic domain with the ABM1 motif (Gly681-Ala710) deleted (Porphyromonas gingivalis W50).
For assay [2], the target named is T1, mature RgpB from P. gingivalis HG66 (Porphyromonas gingivalis HG66, UniProt P95493 230-736).
T1 chain: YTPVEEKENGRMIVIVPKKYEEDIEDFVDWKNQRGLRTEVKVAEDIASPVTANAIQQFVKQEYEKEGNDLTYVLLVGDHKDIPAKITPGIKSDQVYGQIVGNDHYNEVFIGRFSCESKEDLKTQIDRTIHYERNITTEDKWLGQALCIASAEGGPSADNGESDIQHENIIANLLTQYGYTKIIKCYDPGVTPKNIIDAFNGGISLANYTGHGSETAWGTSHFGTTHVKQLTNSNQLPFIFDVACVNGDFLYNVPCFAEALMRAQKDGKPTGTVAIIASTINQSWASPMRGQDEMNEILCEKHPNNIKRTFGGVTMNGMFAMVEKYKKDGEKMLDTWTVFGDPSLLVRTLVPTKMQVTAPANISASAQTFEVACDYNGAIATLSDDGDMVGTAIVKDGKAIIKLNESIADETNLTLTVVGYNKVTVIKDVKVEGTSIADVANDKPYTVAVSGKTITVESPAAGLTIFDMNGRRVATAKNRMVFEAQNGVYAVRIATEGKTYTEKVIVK
Nature of the assay: enzyme inhibition kinetics. The conditions noted are these: both partners purified.

papain, sequence (P00784 134-345): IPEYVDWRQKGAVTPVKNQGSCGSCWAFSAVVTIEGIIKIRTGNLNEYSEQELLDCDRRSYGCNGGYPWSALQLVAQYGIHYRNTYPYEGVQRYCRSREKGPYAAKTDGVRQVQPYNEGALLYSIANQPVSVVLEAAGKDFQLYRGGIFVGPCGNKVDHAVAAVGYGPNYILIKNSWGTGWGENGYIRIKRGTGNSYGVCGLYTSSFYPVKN
caspase 3, sequence (P42574 whole entry): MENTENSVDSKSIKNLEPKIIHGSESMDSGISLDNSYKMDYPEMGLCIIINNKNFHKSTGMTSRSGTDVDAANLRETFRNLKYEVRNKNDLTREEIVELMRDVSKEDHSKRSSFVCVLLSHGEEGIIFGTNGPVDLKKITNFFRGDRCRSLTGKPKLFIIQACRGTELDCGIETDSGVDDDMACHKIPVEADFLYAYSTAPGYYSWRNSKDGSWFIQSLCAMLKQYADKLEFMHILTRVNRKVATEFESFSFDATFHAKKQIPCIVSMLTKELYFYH

Regarding “recombinant RgpB propeptide (thrombin-cleaved) (from UniProt P95493 25-222) (domain or fragment)”, the % proteolytic activity of caspase 3 (60 Units) with RgpB-PP at 100 mg/L, substrate Ac-DEVD-pNa (200 µM) (% proteolytic activity) with caspase 3 came to 133. In the assay with papain, this molecule returned a % proteolytic activity of papain (2.75 mg/L) with RgpB-PP at 100 mg/L, substrate BapNA (% proteolytic activity) of 103. Besides, the % proteolytic activity of Kgp (0.0075 mg/mL) with RgpB-PP at 50 mg/L, substrate GPKNA (% proteolytic activity) in assay [1] stood at 118.

B1: recombinant RgpB propeptide (thrombin-cleaved) (domain or fragment)
chain: QPAERGRNPQVRLLSAEQSMSKVQFRMDNLQFTGVQTSKGVAQVPTFTEGVNISEKGTPILPILSRSLAVSETRAMKVEVVSSKFIEKKDVLIAPSKGVISRAENPDQIPYVYGQSYNEDKFFPGEIATLSDPFILRDVRGQVVNFAPLQYNPVTKTLRIYTEIVVAVSETAEAGQNTISLVKNSTFTGFEDIYKSVFMNYEATR
modifications: Text prints 25-222, but the reverse primer encodes FMNYEATR-stop (end at 229), and 209 aa = GSHM vector remnant + 205 residues (25-229). The GSHM remnant left after thrombin cleavage is omitted. …
Usually Ki stands for a dissociation constant, usually derived from enzyme kinetics or from competition with a known ligand. High values mean a looser hold on the target, low ones a stronger hold on the target. In the case of B1, the affinity in assay [2] corresponds to a Ki of 12 nM.
